We go through 43 sequences from the supplement of paper PMC10724198.

Series [1] deals with Saccharomyces cerevisiae. The series can be described thus: protein stability index of tFT-peptide fusion in wild type (PSI (0-1 scale)); higher = more stable (slower turnover). The note with it: genetic background: wild type. On the procedure:
(§1)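 MPS profiling in S. cerevisiae of two library types built from selected 12-aa C-degron peptides (IN1, IN2, LN1, LN3, VN2, R1-R5, W1-W3, Atg1 and Rpa12 C-termini): saturation mutagenesis libraries and C-terminal +1 capping libraries (13 aa). Each peptide is fused to the C-terminus of a sfGFP-mCherry timer, after a GGGS linker. Cells are FACS-sorted into 8 mCherry/sfGFP bins and sequenced. PSI runs from 0 (unstable) to 1 (stable), measured once in wild type and in the das1Δ or doa10Δ background.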

For series [2], the system named is Saccharomyces cerevisiae. The series can be described thus: protein stability index of tFT-peptide fusion in deletion strain of DAS1 (PSI (0-1 scale)); higher = more stable (slower turnover). On the procedure:
as §1
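Wherever protein stability index of tFT-peptide fusion in deletion strain of DAS1 is given: PSI is a weighted mean of each variant's read distribution over the sorted stability bins, computed only for variants having over 10 reads in total.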
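Wherever protein stability index of tFT-peptide fusion in wild type is given: PSI derived as read-weighted mean over the 8 sorting bins, only variants exceeding 10 total reads kept, mCherry placed adjacent to the peptide and sfGFP distal.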

For PDKRNHLIKALN, the figures for the protein stability index with Saccharomyces cerevisiae [1] and in the series on Saccharomyces cerevisiae [2] were 0.252 and 0.589, respectively.
For PDKRNHLIKLHN the same measures were 0.359 and 0.593.
Regarding PDKRNHLIKLLH, the protein stability index worked out at 0.154 with Saccharomyces cerevisiae [1] and 0.612 with Saccharomyces cerevisiae [2].
For PDKRNHLIKLLNC, the protein stability index worked out at 0.124 in the series on Saccharomyces cerevisiae [1] and 0.663 in the series with Saccharomyces cerevisiae [2].
Consider PDKRNHLIKLLNF, for which the protein stability index in the series with Saccharomyces cerevisiae [1] is 0.176; with Saccharomyces cerevisiae [2], 0.67.
The corresponding values for PDKRNHLIKLLNI are 0.216 and 0.662.
Regarding PDKRNHLIKLLP, the protein stability index in the series on Saccharomyces cerevisiae [1] was found to be 0.595; in the series with Saccharomyces cerevisiae [2], 0.596.
The corresponding values for PDKRNHLIKLLT are 0.205 and 0.622.
The corresponding values for PDKRNHLIKLLW are 0.578 and 0.586.
The corresponding values for PDKRNHLIKLSN are 0.486 and 0.609.
With PDKRNHLIKLTN, the protein stability index in the series on Saccharomyces cerevisiae [1] is 0.292; with Saccharomyces cerevisiae [2] it was 0.568.
The corresponding values for PDKRNHLIKNLN are 0.473 and 0.54.
Take PDKRNHLIKQLN: the values for the protein stability index in the series with Saccharomyces cerevisiae [1] and in the series with Saccharomyces cerevisiae [2] were 0.0992 and 0.575, respectively.
The corresponding values for PDKRNHLINLLN are 0.113 and 0.605.
Regarding PDKRNMLIKLLN, the protein stability index worked out at 0.0899 in the series with Saccharomyces cerevisiae [1] and 0.722 in the series with Saccharomyces cerevisiae [2].
As for PDKRNRLIKLLN, the protein stability index in the series with Saccharomyces cerevisiae [1] was found to be 0.141; with Saccharomyces cerevisiae [2], 0.592.
The corresponding values for PDKRTHLIKLLN are 0.0881 and 0.655.
The corresponding values for PDKTNHLIKLLN are 0.144 and 0.658.
For PDRRNHLIKLLN the same measures were 0.118 and 0.664.
Consider PDSRNHLIKLLN, for which the protein stability index in the series with Saccharomyces cerevisiae [1] stood at 0.125; in the series with Saccharomyces cerevisiae [2] it was 0.6.
The corresponding values for PHKRNHLIKLLN are 0.141 and 0.694.
On to PILAASFWRVVG, for which the protein stability index in the series on Saccharomyces cerevisiae [1] was 0.145; in the series with Saccharomyces cerevisiae [2], 0.678.
For PKKRNHLIKLLN the same measures were 0.149 and 0.596.
For PMKRNHLIKLLN the same measures were 0.069 and 0.569.
PRKRNHLIKLLN: the protein stability index turned out to be 0.141 in the series with Saccharomyces cerevisiae [1] and 0.633 in the series on Saccharomyces cerevisiae [2].
In the case of PSLAAEFWRVVG, the protein stability index with Saccharomyces cerevisiae [1] is 0.168; in the series with Saccharomyces cerevisiae [2] it was 0.697.
With PSLAASEWRVVG, the results for the protein stability index in the series with Saccharomyces cerevisiae [1] and with Saccharomyces cerevisiae [2] were 0.535 and 0.703, respectively.
For PSLAASFMRVVG the same measures were 0.531 and 0.681.
For PSLAASFWAVVG the same measures were 0.601 and 0.686.
The corresponding values for PSLAASFWHVVG are 0.46 and 0.691.
Turning to PSLAASFWQVVG, the protein stability index in the series with Saccharomyces cerevisiae [1] worked out at 0.465; in the series on Saccharomyces cerevisiae [2] it was 0.692.
On to PSLAASFWRDVG, for which the protein stability index amounted to 0.645 in the series with Saccharomyces cerevisiae [1] and 0.695 in the series with Saccharomyces cerevisiae [2].
Regarding PSLAASFWRLVG, the protein stability index was 0.135 in the series on Saccharomyces cerevisiae [1] and 0.688 in the series with Saccharomyces cerevisiae [2].
For the sequence PSLAASFWRVQG, the protein stability index worked out at 0.155 with Saccharomyces cerevisiae [1] and 0.672 in the series on Saccharomyces cerevisiae [2].
The corresponding values for PSLAASFWRVVA are 0.131 and 0.68.
The corresponding values for PSLAASFWRVVN are 0.133 and 0.67.
The corresponding values for PSLAASFWRVVY are 0.636 and 0.682.
Regarding PSLAASFWTVVG, the protein stability index with Saccharomyces cerevisiae [1] was 0.62; in the series with Saccharomyces cerevisiae [2] it was 0.708.
As to PSLAASFYRVVG, the protein stability index with Saccharomyces cerevisiae [1] was found to be 0.625; with Saccharomyces cerevisiae [2], 0.689.
For PSLAASKWRVVG the same measures were 0.138 and 0.666.
PSLAASLWRVVG: the protein stability index was found to be 0.133 with Saccharomyces cerevisiae [1] and 0.673 in the series with Saccharomyces cerevisiae [2].
The corresponding values for PSLAASVWRVVG are 0.162 and 0.661.
The corresponding values for PSLAPSFWRVVG are 0.136 and 0.682.
